Legend:
[1] = biological target: His-MS2-MBP (MS2 coat protein fused to maltose binding protein) (bacteriophage MS2) (UniProt P03612); assay: SPR; details: kon/koff fit, HBS-EP+; SPR: HBS-EP+ running buffer, Biacore X100, binding temperature not given; gel cleavage: 500 uM MgCl2, 150 mM NaCl, 1 mM DTT, 10 mM HEPES pH 7.4, 37 C
[2] = biological target: His-MS2-MBP (MS2 coat protein fused to maltose binding protein) (bacteriophage MS2) (UniProt P03612); assay: ribozyme cleavage inhibition (gel); details: SPR: HBS-EP+ running buffer, Biacore X100, binding temperature not given; gel cleavage: 500 uM MgCl2, 150 mM NaCl, 1 mM DTT, 10 mM HEPES pH 7.4, 37 C

Chain of UniProt P03612 (P03612 whole entry, the tested form may be a part): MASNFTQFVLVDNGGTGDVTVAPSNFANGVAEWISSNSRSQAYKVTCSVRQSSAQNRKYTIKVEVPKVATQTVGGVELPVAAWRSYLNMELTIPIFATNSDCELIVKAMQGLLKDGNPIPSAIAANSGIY

Sequence | Kd [1] [nM] | IC50 [2] [nM]
GCUGUCACCGGAAUCAAGGUCCGGUCUGAUGAGUCCGACCAUCAGGAGGACGAAACAGC [MS2-B3] | 296 | 
GCUGUCACCGGAAUCAAGGUCCGGUCUGAUGAGUCCGUUGUCCACCAUCAGGGGACGGGACGGAGGACGAAACAGC [MS2-A2] | 6.08 | 19
GCUGUCACCGGAUGUGCUGCAGGAUCACCGCAUUUCCGGUCUGAUGAGUCCGUGAGGACGAAACAGC [MS2-B1] | 630 | 
GCUGUCACCGGAUGUGCUUUCCGGUCUGAUGAGUCCGUGGUCCACCAUCAGGGGACUGGACUGAGGACGAAACAGC [MS2-A3] | 253 | 
GCUGUCACCGGAUGUGCUUUCCGGUCUGAUGAGUCCGUUGCGUAGGAUCACCACGUGGCGCGGAGGACGAAACAGC [MS2-A8] | 50 | 
GCUGUCACCGGAUGUGCUUUCCGGUCUGAUGAGUCCGUUGUCCAGGAUCACCGGACGGGACGGAGGACGAAACAGC [MS2-A1] | 24.5 | 63
GCUGUCACCGGAUGUGCUUUCCGGUCUGAUGAGUCCGUUGUCCUAGGAUCACCAGGAAGGGACGGAGGACGAAACAGC [MS2-A7] | 279 | 
GCUGUCACCGGAUGUGGUUUCCGGUCUGAUGAGUCCGACCAUCAGGAGGACGAAACAGC [MS2-B2] | 237 | 
GCUGUCACCGGAUUCGGGAUCCGGUCUGAUGAGUCCGACCAUCAGGAGGACGAAACAGC [MS2-B4] | 224 | 

From paper PMC4231745
